From patent publication US20140087995A1 (published 2014)
Numbered stars: 1 amine (or outer) side, 2 acyl side, 3 side chain; on linkers, the order of the positions; unused ones are H or OH. Bridge positions count the residues as written; N and C are the ends. Side chains are listed from the residue outwards. Ends that are not written are not given here. * marks the point of attachment. C20 diacid = O=C(O)CCCCCCCCCCCCCCCCCCC(=O)*; γGlu = O=C(O)[C@H](CCC(=O)[*:2])N[*:1]; AEEA = NCCOCCOCC(=O)O

T1: human calcitonin receptor (human, UniProt P30988 25-474)
T1 construct: whole, on cells; membranes of stably transfected BHK cells (Assay VII); also called hCTR; hCT
T1 sequence (looked up): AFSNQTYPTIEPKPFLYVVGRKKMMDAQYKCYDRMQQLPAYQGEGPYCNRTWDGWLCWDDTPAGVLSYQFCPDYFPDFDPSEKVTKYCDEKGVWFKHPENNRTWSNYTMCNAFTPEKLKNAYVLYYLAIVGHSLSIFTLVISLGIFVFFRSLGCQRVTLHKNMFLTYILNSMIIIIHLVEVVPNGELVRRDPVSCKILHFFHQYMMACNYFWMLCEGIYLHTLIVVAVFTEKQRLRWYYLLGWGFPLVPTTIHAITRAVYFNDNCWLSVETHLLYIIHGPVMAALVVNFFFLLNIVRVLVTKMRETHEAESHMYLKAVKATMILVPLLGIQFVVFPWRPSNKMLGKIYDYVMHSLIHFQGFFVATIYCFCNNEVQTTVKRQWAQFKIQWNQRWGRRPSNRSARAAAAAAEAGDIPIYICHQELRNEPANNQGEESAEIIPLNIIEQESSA

T2: rat amylin receptor (rat calcitonin receptor + rat RAMP 3) (rat, UniProt P32214 25-516; Q9JJ73 23-147)
T2 construct: whole, on cells; membranes of transiently transfected BHK tk'ts 13 cells (Assay VI); also called rAmylin-R; rat amylin 3(a) receptor
T2 sequence (looked up) 1: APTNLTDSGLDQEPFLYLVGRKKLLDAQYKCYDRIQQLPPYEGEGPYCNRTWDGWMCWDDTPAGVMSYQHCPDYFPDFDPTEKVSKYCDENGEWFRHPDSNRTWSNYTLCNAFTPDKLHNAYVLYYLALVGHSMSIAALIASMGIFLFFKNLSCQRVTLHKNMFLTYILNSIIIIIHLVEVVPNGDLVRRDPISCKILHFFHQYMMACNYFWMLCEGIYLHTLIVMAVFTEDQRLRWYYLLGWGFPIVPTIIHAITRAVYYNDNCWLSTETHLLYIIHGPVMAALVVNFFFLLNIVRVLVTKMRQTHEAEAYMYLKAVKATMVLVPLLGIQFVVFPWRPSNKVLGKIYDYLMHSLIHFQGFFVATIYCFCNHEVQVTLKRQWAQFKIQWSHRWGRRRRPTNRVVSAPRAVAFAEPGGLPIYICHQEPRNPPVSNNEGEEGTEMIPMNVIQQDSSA
T2 sequence (looked up) 2: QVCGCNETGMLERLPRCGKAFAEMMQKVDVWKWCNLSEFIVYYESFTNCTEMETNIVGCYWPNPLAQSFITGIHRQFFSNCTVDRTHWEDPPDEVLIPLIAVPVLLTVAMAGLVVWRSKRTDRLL

T3: rat calcitonin receptor (rat, UniProt P32214 25-516)
T3 construct: whole, on cells; membranes of transiently transfected BHK tk'ts 13 cells (Assay VIII); also called rCTR; rat calcitonin (a) receptor
T3 sequence (looked up): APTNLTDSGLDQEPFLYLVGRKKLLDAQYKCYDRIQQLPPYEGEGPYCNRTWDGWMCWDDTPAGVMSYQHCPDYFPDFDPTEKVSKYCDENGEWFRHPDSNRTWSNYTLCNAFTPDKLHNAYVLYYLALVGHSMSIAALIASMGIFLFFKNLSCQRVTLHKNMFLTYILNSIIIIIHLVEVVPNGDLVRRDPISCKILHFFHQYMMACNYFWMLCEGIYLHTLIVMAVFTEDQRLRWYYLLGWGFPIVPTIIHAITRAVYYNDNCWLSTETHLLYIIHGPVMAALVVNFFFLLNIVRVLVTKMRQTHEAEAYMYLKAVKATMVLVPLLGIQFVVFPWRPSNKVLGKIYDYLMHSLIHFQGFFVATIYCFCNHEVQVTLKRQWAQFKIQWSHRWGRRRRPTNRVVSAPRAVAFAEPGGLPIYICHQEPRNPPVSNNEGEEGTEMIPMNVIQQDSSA

B1: N^α1-[(4S)-4-carboxy-4-(19-carboxynonadecanoylamino)butanoyl]-[Arg17,Pro21,Pro27,Lys35]-h-amylin (peptide)
peptide: KCNTATCATQRLANFLRHSSPNFGAIPSSTNVGSKTY
modifications: C20 diacid-gGlu on the alpha amino group of the N-terminal residue (Lys 1); disulfide bridge between the two Cys residues; C-terminal amide
notes: analogue of human amylin; also called compound 34
B2: N^ε1-[2-[2-[2-[[2-[2-[2-[[(4S)-4-carboxy-4-(19-carboxynonadecanoylamino)butanoyl]amino]ethoxy]ethoxy]acetyl]amino]ethoxy]ethoxy]acetyl]-[Arg17,Pro21,Pro27,Glu35 … (peptide)
peptide: K([AEEA-AEEA-γGlu-C20 diacid])CNTATCATQRLANFLRHSSPNFGAIPSSTNVGSETY-NH2
modifications: disulfide 2-7 (inferred)
notes: analogue of human amylin; also called compound 25
B3: N^ε1-[2-[2-[2-[[(4S)-4-carboxy-4-(19-carboxynonadecanoylamino)butanoyl]amino]ethoxy]ethoxy]acetyl]-[Arg17,Pro21,Pro27,Pro31]-h-amylin (peptide)
peptide: K([AEEA-γGlu-C20 diacid])CNTATCATQRLANFLRHSSPNFGAIPSSTPVGSNTY-NH2
modifications: disulfide 2-7 (inferred)
notes: analogue of human amylin; also called compound 49
B4: N^α1N^α1-[(4S)-4-carboxy-4-(19-carboxynonadecanoylamino)butanoyl]-[Glu14,Arg17,Pro21,Pro27,Glu35]-h-amylin (peptide)
peptide: {C20 diacid-γGlu}-KCNTATCATQRLAEFLRHSSPNFGAIPSSTNVGSETY-NH2
modifications: disulfide 2-7 (inferred)
notes: analogue of human amylin; the name is printed with N^α1 twice; also called compound 22
B5: N^α1-[(4S)-4-carboxy-4-(19-carboxynonadecanoylamino)butanoyl]-[Glu14,Arg17,Pro21,Pro27,His34]-h-amylin (peptide)
peptide: {C20 diacid-γGlu}-KCNTATCATQRLAEFLRHSSPNFGAIPSSTNVGHNTY-NH2
modifications: disulfide 2-7 (inferred)
notes: analogue of human amylin; also called compound 17
B6: N^α1-[(4S)-4-carboxy-4-(19-carboxynonadecanoylamino)butanoyl]-[Glu14,Arg17,Pro21,Pro27,Arg35]-h-amylin (peptide)
peptide: {C20 diacid-γGlu}-KCNTATCATQRLAEFLRHSSPNFGAIPSSTNVGSRTY-NH2
modifications: disulfide 2-7 (inferred)
notes: analogue of human amylin; also called compound 16
B7: N^α1-[(4S)-4-carboxy-4-(19-carboxynonadecanoylamino)butanoyl]-[His14,Arg17,Pro21,Pro27,Glu35]-h-amylin (peptide)
peptide: {C20 diacid-γGlu}-KCNTATCATQRLAHFLRHSSPNFGAIPSSTNVGSETY-NH2
modifications: disulfide 2-7 (inferred)
notes: analogue of human amylin; also called compound 30
B8: N^ε1-[2-[2-[2-[[(4S)-4-carboxy-4-(19-carboxynonadecanoylamino)butanoyl]amino]ethoxy]ethoxy]acetyl]-[Arg17,Pro21,Pro27,Pro34]-h-amylin (peptide)
peptide: K([AEEA-γGlu-C20 diacid])CNTATCATQRLANFLRHSSPNFGAIPSSTNVGPNTY-NH2
modifications: disulfide 2-7 (inferred)
notes: analogue of human amylin; also called compound 50
B9: N^α1-[(4S)-4-carboxy-4-(19-carboxynonadecanoylamino)butanoyl]-[Arg17,Pro21,Pro27,Pro31,Glu35]-h-amylin (peptide)
peptide: {C20 diacid-γGlu}-KCNTATCATQRLANFLRHSSPNFGAIPSSTPVGSETY-NH2
modifications: disulfide 2-7 (inferred)
notes: analogue of human amylin; also called compound 28
B10: N^α1-[(4S)-4-carboxy-4-(19-carboxynonadecanoylamino)butanoyl]-[Glu14,Arg17,Pro21,Pro27,Pro31]-h-amylin (peptide)
peptide: {C20 diacid-γGlu}-KCNTATCATQRLAEFLRHSSPNFGAIPSSTPVGSNTY-NH2
modifications: disulfide 2-7 (inferred)
notes: analogue of human amylin; also called compound 31
B11: N^α1-[(4S)-4-carboxy-4-(19-carboxynonadecanoylamino)butanoyl]-[Arg17,Pro21,Pro27,Pro34,Glu35]-h-amylin (peptide)
peptide: {C20 diacid-γGlu}-KCNTATCATQRLANFLRHSSPNFGAIPSSTNVGPETY-NH2
modifications: disulfide 2-7 (inferred)
notes: analogue of human amylin; also called compound 29
B12: N^ε1-[2-[2-[2-[[(4S)-4-carboxy-4-(19-carboxynonadecanoylamino)butanoyl]amino]ethoxy]ethoxy]acetyl]-[Arg17,Pro21,Pro27,Glu35]-h-amylin (peptide)
peptide: K([AEEA-γGlu-C20 diacid])CNTATCATQRLANFLRHSSPNFGAIPSSTNVGSETY-NH2
modifications: disulfide 2-7 (inferred)
notes: analogue of human amylin; also called compound 26
B13: N^α1-[(4S)-4-carboxy-4-(19-carboxynonadecanoylamino)butanoyl]-[Glu14,Arg17,Pro21,Pro27,Pro34]-h-amylin (peptide)
peptide: {C20 diacid-γGlu}-KCNTATCATQRLAEFLRHSSPNFGAIPSSTNVGPNTY-NH2
modifications: disulfide 2-7 (inferred)
notes: analogue of human amylin; also called compound 32
B14: N^α1-[(4S)-4-carboxy-4-(19-carboxynonadecanoylamino)butanoyl]-[Glu14,Arg17,Pro21,Pro26]-h-amylin (peptide)
peptide: {C20 diacid-γGlu}-KCNTATCATQRLAEFLRHSSPNFGAPLSSTNVGSNTY-NH2
modifications: disulfide 2-7 (inferred)
notes: analogue of human amylin; also called compound 7

Assays:
[1] = molecular target: T1, human calcitonin receptor; test: IC50 on human calcitonin receptor divided by IC50 on human amylin receptor (SPA competition)
Protocol: The resulting pellet was resuspended, homogenized and centrifuged (20.000 rpm, 15 min) in a buffer containing 20 mM Na-HEPES and 0.1 mM EDTA (pH 7.4, buffer 2). The resulting pellet was resuspended in buffer 2 and protein concentration was measured (BCA protein Assay, Pierce). The homogenate was kept cold during the whole procedure. The membranes were kept at −80° C. until use. The assay was performed in a 384 well Optiplate (PerkinElmer) in a total volume of 40 ul. Membranes were mixed with SPA beads. Final concentration of membranes 35 ng/μL final and SPA beads was 0.05 mg/well. Test-compounds were dissolved in DMSO and further diluted in assay buffer (50 mM Hepes, pH 7.4, 1 mM CaCl2, 5 mM MgCl₂, 0.1% OA and 0.02% Tween20). […] The final mixture was incubated with shaking at 400 rpm for 120 min at 25° C. prior to centrifugation (1500 rpm, 10 min). Samples were analyzed on TopCounter™ (Packard). The IC₅₀ was calculated using (one site binding competition analysis) GraphPad Prism5 as a measure of receptor affinity.
Membranes were prepared in the following way; the cells were rinsed with PBS and incubated with Versene for approximately 5 min before harvesting. The cells were flushed with PBS and the cell-suspension was centrifuged for 5 min at 1000 rpm. Cells were homogenized (Ultrathurrax) in a buffer containing 20 mM Na-HEPES and 10 mM EDTA (pH 7.4) and centrifuged at 20.000 rpm for 15 min. The resulting pellet was resuspended, homogenized and centrifuged (20.000 rpm, 15 min) in a buffer containing 20 mM Na-HEPES and 0.1 mM EDTA (pH 7.4, buffer 2). The resulting pellet was resuspended in buffer 2 and protein concentration was measured (BCA protein Assay, Pierce). The homogenate was kept cold during the whole procedure. The membranes were kept at −80° C. until use. Assay was performed in a 384 well Optiplate (PerkinElmer) in a total volume of 40 ul. Membranes were mixed with SPA beads.

[2] = molecular target: T2, rat amylin receptor (rat calcitonin …); test: SPA competition with 125I-rat amylin, membranes of BHK cells with rat calcitonin receptor + rat RAMP3 (Assay VI)
rat calcitonin receptor [3] = molecular target: T3, rat calcitonin receptor; test: IC50 on rat calcitonin receptor divided by IC50 on rat amylin receptor (SPA competition)
rat calcitonin receptor [4] = molecular target: T3, rat calcitonin receptor; test: SPA competition with 125I-calcitonin, membranes of BHK cells with rat calcitonin receptor (Assay VIII)

Binder	Ratio hCT/hAmylin binding [1]	IC50 [2]	Ratio rCT/rAmylin binding (rat calcitonin receptor [3])	IC50 (rat calcitonin receptor [4])
B1	64.4	1.72 nM	52	89.2 nM
B2	56.5	3.48 nM	37.7	131 nM
B3	10.8	1.08 nM	47.7	51.4 nM
B4	12.3	2.19 nM	28.5	62.5 nM
B5	12.5	2.71 nM	35.9	97.2 nM
B6	19.1	1.21 nM	45.6	55.2 nM
B7	23.6	3.14 nM	36.1	114 nM
B8	36	0.069 nM	81.7	5.63 nM
B9	20.5	1.22 nM	44.9	54.9 nM
B10	16	0.619 nM	42.8	26.5 nM
B11	13.9	0.322 nM	67	21.6 nM
B12	47.5	0.491 nM	309	152 nM
B13	10.9	0.176 nM	34	5.98 nM
B14	16.5	1.12 nM	42	47.2 nM
